Blank lines part the entries; values can stand above or below the binder they belong to.
Tests used:
4H2619-bN = target: T1, 4H2619-bN; experiment: two-hybrid library CCNG1;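 also: natural log of median RNA to DNA barcode read ratio; higher means stronger binding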
T1 chain: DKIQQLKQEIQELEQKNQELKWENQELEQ

4H496-bN = target: T2, 4H496-bN; experiment: two-hybrid library CCNG1;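 also: natural log of median RNA to DNA barcode read ratio; higher means stronger binding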
T2 chain: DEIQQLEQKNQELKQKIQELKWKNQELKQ

4H2691-bN = target: T3, 4H2691-bN; experiment: two-hybrid library CCNG1;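 also: natural log of median RNA to DNA barcode read ratio; higher means stronger binding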
T3 chain: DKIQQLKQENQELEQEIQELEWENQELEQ

4H3070-bN = target: T4, 4H3070-bN; experiment: two-hybrid library CCNG1; conditions: mean of both orientations;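 also: natural log of median RNA to DNA barcode read ratio; higher means stronger binding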
T4 chain: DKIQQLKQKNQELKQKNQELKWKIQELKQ

4H342-bN = target: T5, 4H342-bN; experiment: two-hybrid library CCNG1;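 also: natural log of median RNA to DNA barcode read ratio; higher means stronger binding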
T5 chain: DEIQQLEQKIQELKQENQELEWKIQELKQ

4H145-bN = target: T6, 4H145-bN; experiment: two-hybrid library CCNG1; conditions: mean of both orientations;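 also: natural log of median RNA to DNA barcode read ratio; higher means stronger binding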
T6 chain: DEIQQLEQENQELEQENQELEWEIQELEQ

4H3632-bN = target: T7, 4H3632-bN; experiment: two-hybrid library CCNG1
T7 chain: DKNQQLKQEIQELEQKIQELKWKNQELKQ

4H3907-bH = target: T8, 4H3907-bH; experiment: two-hybrid library CCNG1
T8 chain: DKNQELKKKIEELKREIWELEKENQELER

4H2568-bH = target: T9, 4H2568-bH; experiment: two-hybrid library CCNG1
T9 chain: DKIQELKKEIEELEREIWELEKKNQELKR

4H363-bH = target: T10, 4H363-bH; experiment: two-hybrid library CCNG1
T10 chain: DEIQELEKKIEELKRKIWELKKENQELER

4H470-bH = target: T11, 4H470-bH; experiment: two-hybrid library CCNG1
T11 chain: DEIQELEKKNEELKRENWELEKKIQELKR

4H3592-bH = target: T12, 4H3592-bH; experiment: two-hybrid library CCNG1
T12 chain: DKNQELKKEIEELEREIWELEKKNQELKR

4H1406-bH = target: T13, 4H1406-bH; experiment: two-hybrid library CCNG1
T13 chain: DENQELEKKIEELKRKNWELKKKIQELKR

4H2745-bH = target: T14, 4H2745-bH; experiment: two-hybrid library CCNG1
T14 chain: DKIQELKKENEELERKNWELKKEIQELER

4H3297-bN = target: T15, 4H3297-bN; experiment: two-hybrid library CCNG1
T15 chain: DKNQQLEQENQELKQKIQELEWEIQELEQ

4H1072-bH = target: T16, 4H1072-bH; experiment: two-hybrid library CCNG1
T16 chain: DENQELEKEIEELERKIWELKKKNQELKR

4H1387-bH = target: T17, 4H1387-bH; experiment: two-hybrid library CCNG1
T17 chain: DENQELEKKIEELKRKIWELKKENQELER

4H344-bH = target: T18, 4H344-bH; experiment: two-hybrid library CCNG1
T18 chain: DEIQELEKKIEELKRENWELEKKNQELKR

4H3961-bH = target: T19, 4H3961-bH; experiment: two-hybrid library CCNG1
T19 chain: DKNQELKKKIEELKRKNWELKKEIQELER

4H3601-bH = target: T20, 4H3601-bH; experiment: two-hybrid library CCNG1
T20 chain: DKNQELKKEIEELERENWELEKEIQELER

4H2619-bH = target: T21, 4H2619-bH; experiment: two-hybrid library CCNG1
T21 chain: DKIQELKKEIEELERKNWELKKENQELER

4H1899-bN = target: T22, 4H1899-bN; experiment: two-hybrid library CCNG1
T22 chain: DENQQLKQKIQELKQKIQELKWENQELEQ

4H1193-bH = target: T23, 4H1193-bH; experiment: two-hybrid library CCNG1
T23 chain: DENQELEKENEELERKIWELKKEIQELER

4H4038-bH = target: T24, 4H4038-bH; experiment: two-hybrid library CCNG1
T24 chain: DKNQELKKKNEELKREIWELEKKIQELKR

O16-bN = target: T25, O16-bN; experiment: two-hybrid library CCNG1
T25 chain: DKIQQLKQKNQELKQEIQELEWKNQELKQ

O9-bN = target: T26, O9-bN; experiment: two-hybrid library CCNG1; conditions: mean of both orientations
T26 chain: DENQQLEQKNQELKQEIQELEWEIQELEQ

O5-bN = target: T27, O5-bN; experiment: two-hybrid library CCNG1
T27 chain: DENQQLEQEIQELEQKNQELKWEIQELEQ

O13-bN = target: T28, O13-bN; experiment: two-hybrid library CCNG1
T28 chain: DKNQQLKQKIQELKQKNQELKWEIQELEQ

O4-bN = target: T29, O4-bN; experiment: two-hybrid library CCNG1
T29 chain: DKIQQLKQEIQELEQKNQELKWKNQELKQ

O12-bN = target: T30, O12-bN; experiment: two-hybrid library CCNG1
T30 chain: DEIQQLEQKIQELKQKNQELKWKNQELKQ

O14-bN = target: T31, O14-bN; experiment: two-hybrid library CCNG1
T31 chain: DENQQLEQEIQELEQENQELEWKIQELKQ

O7-bN = target: T32, O7-bN; experiment: two-hybrid library CCNG1
T32 chain: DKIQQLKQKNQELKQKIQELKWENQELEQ

O6-bN = target: T33, O6-bN; experiment: two-hybrid library CCNG1
T33 chain: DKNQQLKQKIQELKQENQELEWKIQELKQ

O10-bN = target: T34, O10-bN; experiment: two-hybrid library CCNG1; conditions: mean of both orientations
T34 chain: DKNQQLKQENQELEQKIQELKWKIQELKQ

O3-bN = target: T35, O3-bN; experiment: two-hybrid library CCNG1
T35 chain: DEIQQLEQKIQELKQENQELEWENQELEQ

O15-bN = target: T36, O15-bN; experiment: two-hybrid library CCNG1
T36 chain: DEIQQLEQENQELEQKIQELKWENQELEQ

O8-bN = target: T37, O8-bN; experiment: two-hybrid library CCNG1
T37 chain: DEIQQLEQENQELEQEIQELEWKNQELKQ

O11-bN = target: T38, O11-bN; experiment: two-hybrid library CCNG1
T38 chain: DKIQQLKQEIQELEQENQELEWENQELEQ

O2-bN = target: T39, O2-bN; experiment: two-hybrid library CCNG1
T39 chain: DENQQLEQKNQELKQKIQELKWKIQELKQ

Core_NIIN-es_KEKK = target: T40, Core_NIIN-es_KEKK; experiment: two-hybrid library CCmax; conditions: mean of both orientations
T40 chain: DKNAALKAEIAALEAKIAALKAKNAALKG

4H3628-bH = target: T41, 4H3628-bH; experiment: two-hybrid library CCNG1
T41 chain: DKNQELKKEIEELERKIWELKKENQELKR

4H3613-bH = target: T42, 4H3613-bH; experiment: two-hybrid library CCNG1
T42 chain: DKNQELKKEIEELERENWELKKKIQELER

4H1373-bH = target: T43, 4H1373-bH; experiment: two-hybrid library CCNG1
T43 chain: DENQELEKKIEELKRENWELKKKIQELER

4H1710-bH = target: T44, 4H1710-bH; experiment: two-hybrid library CCNG1
T44 chain: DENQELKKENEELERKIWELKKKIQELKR

4H1985-bH = target: T45, 4H1985-bH; experiment: two-hybrid library CCNG1
T45 chain: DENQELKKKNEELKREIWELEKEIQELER

4H3974-bH = target: T46, 4H3974-bH; experiment: two-hybrid library CCNG1
T46 chain: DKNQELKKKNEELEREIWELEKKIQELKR

4H570-bH = target: T47, 4H570-bH; experiment: two-hybrid library CCNG1
T47 chain: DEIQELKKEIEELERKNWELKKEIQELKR

4H1899-bH = target: T48, 4H1899-bH; experiment: two-hybrid library CCNG1
T48 chain: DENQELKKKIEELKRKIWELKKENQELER

4H3817-bH = target: T49, 4H3817-bH; experiment: two-hybrid library CCNG1
T49 chain: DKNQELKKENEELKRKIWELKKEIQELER

4H1348-bH = target: T50, 4H1348-bH; experiment: two-hybrid library CCNG1
T50 chain: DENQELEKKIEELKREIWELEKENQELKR

4H850-bH = target: T51, 4H850-bH; experiment: two-hybrid library CCNG1
T51 chain: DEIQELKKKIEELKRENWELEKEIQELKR

4H1544-bH = target: T52, 4H1544-bH; experiment: two-hybrid library CCNG1
T52 chain: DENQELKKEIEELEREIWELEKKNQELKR

4H1449-bH = target: T53, 4H1449-bH; experiment: two-hybrid library CCNG1
T53 chain: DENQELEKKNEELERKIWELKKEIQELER

4H1338-bH = target: T54, 4H1338-bH; experiment: two-hybrid library CCNG1
T54 chain: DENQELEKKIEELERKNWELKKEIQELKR

4H3858-bH = target: T55, 4H3858-bH; experiment: two-hybrid library CCNG1
T55 chain: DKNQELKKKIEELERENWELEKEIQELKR

Binder: DEIQQLEQENQELEQENQELEWEIQELEQ [4H145-bN]
interaction score (4H2619-bN): -0.87
interaction score (4H496-bN): -0.916
interaction score (4H2691-bN): -1.25
interaction score (4H3070-bN): 2.01
interaction score (4H342-bN): -2.65
interaction score (4H145-bN): -0.563
interaction score (4H3632-bN): -1.49

Binder: DKNQQLKQENQELEQKIQELKWKIQELKQ [O10-bN]
interaction score (O16-bN): -0.104
interaction score (O9-bN): 1.38
interaction score (O5-bN): 0.186
interaction score (O13-bN): -0.398
interaction score (O4-bN): -0.783
interaction score (O12-bN): -1.87
interaction score (O14-bN): -1.59
interaction score (O7-bN): 0.28
interaction score (O6-bN): -0.552
interaction score (O10-bN): -0.625
interaction score (O3-bN): 0.129
interaction score (O15-bN): 0.569
interaction score (O8-bN): -0.514
interaction score (O11-bN): 0.648
interaction score (O2-bN): 0.523

Binder: DENAALEAKIAALKAEIAALEAENAALEG [Core_NIIN-es_EKEE]
interaction score (Core_NIIN-es_KEKK): 1.84

Second part, the binder after the results:

interaction score (4H3907-bH): 1.52
interaction score (4H2568-bH): -0.817
interaction score (4H363-bH): 0.487
interaction score (4H470-bH): -1.58
interaction score (4H3592-bH): 2.09
interaction score (4H1406-bH): 0.174
interaction score (4H2745-bH): -0.184
interaction score (4H3297-bN): 0.827
interaction score (4H1072-bH): 0.311
interaction score (4H1387-bH): 1.17
interaction score (4H344-bH): 1.31
interaction score (4H3961-bH): 0.132
interaction score (4H3601-bH): 0.621
interaction score (4H2619-bH): 1.65
interaction score (4H1899-bN): 1.84
interaction score (4H1193-bH): 0.426
interaction score (4H4038-bH): 0.634
Binder: DENQELEKEIEELERKIWELKKKNQELKR [4H1072-bH]

interaction score (4H3628-bH): 0.15
interaction score (4H3613-bH): -0.0861
interaction score (4H1373-bH): 0.156
interaction score (4H1710-bH): -0.178
interaction score (4H1985-bH): 0.0593
interaction score (4H3974-bH): 0.694
interaction score (4H570-bH): -0.436
interaction score (4H1899-bH): -0.277
interaction score (4H3817-bH): -0.423
interaction score (4H1348-bH): 1.22
interaction score (4H850-bH): 1.44
interaction score (4H1544-bH): 0.712
interaction score (4H1449-bH): -0.182
interaction score (4H1338-bH): 0.937
interaction score (4H3858-bH): 1.35
Binder: DENQELEKKIEELERKNWELKKEIQELKR [4H1338-bH]

From publication PMC10397247
